These results are taken from the nanobody polyreactivity screen of Harvey et al. (2022).

A short description of this series: yeast display, Sf9 membrane polyspecificity reagent, FACS + sequencing; frameworks hold sequencing errors. An outline of the steps:
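Nanobodies came from a synthetic yeast display library in Saccharomyces cerevisiae BJ5465, induced with galactose for 36–48 hours and stained for 1 hour at 4 °C with 10% biotinylated, detergent-solubilized Sf9 membrane reagent. Cells were enriched on streptavidin microbeads and then FACS-sorted, with low and high (top ~1%) gates set on anti-HA fluorescence for expression and streptavidin fluorescence for reagent binding. Each polyreactivity label reflects the gate a clone came from. Genes were amplified by colony PCR, sequenced by MiSeq 2 × 250 and filtered by CDR length.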
For the sequence “QVQLVESGGGLVQAGGSLRLSCAASGNTFVTYTMGWYRQAPGKERELVADISSGGSTYYADSVKGRFTISRDNAKNTVYLQINSLKPEDTAVYYCAVQQAVFRSYYIYHRYYWGQGTQVTVSS”, the “polyreactivity (PSR sort gate)” value is listed as “high polyreactivity”.

“QVQLVESGGGLVQAGGSLRLSCAASGNTFWDNAMGWYRQAPGKERELVAAIRWSTGSTHYADSVKGRFTISRDNAKNTVYLQMNSLKPEDTAVYYCAATDYYYYRDKYYGYDYWGQGTQVTVSS”: the “polyreactivity (PSR sort gate)” value was “low polyreactivity”.

For “QVQLVESGGGLVQAGGSLRLSCAASGNTFYGYALGWYRPAPGKERELVASITLSGDSTHYADSVKGRFTISRDNAKNTVYVQMNSLKPEDTAVYYCAGVYTYPLGYYHYTYDYWGQGTQVTVSS”, the “polyreactivity (PSR sort gate)” value is given as “low polyreactivity”.

For “QVQLVESGGGLVQAGGSLRLSCAASGNTFYGYAMGWYRQAPGNERELVASITLSGDSTYYADSVKGRFTISRDNAKNTVYLQMNSLKPEDTAVYYCAGVYTYPLGYYHDTYDYWGQGTQVTVSS”, the “polyreactivity (PSR sort gate)” value is “low polyreactivity”.

Turning to “QVQLVESGGGLVQAGGSLRLSCAASGNTFYRYAMGGYRQSPGKERELVAAITWSGSRTYYADSVKGRFTISRDNAKYTVYLQMNRLKPEDTAVYYCAAPFWYVGPAMDYWGQGTQVTVSS”, the “polyreactivity (PSR sort gate)” value is “low polyreactivity”.

With “QVQLVESGGGLVQAGGSLRLSCAASGNTFYWYVMGWYRQAPGKERELVARITSSGGSTNYADSVKGRFTISRDNAKNTVYLQMNSLKPEDTAVYYCAADDIYLYGGGTDYYFWGQGTQVTVSS”, the “polyreactivity (PSR sort gate)” value is recorded as “low polyreactivity”.

“QVQLVESGGGLVQAGGSLRLSCAASGNTIGSNAMGWYRQAPGKERELVATISKRGGSTYYADSVKGRFTISRDNAKNTVYLQMNSLKPEDTAVYYCATTSTRYWAFSSRPDYRDDYWGQGTQVTVSS”: the “polyreactivity (PSR sort gate)” value is “high polyreactivity”.

“QVQLVESGGGLVQAGGSLRLSCAASGNTIYQYAMGWYRQAPGKERELVAAISSSVDRTYYADSVKGRFTISRDNAKNTVYLQMNSLKPEDTAVYYCAAASGGRWRVGYWGQGTQVTVSS”: the “polyreactivity (PSR sort gate)” value is given as “high polyreactivity”.

With “QVQLVESGGGLVQAGGSLRLSCAASGNTLGYNAMGWYRKAPGKERELVATIRGSGGITYYADSVKGRFTISRDNAKNTVYLQMNSLKPEDTAVDYCAKVYKYRVKGDHWGQGTQVTVSS”, the “polyreactivity (PSR sort gate)” value is on record as “low polyreactivity”.

With “QVQLVESGGGLVQAGGSLRLSCAASGNTLRYNVMGWYRQAPGKERELDAAISGGGSTSYADSVKGRFTISRDNAKNTVYLQMNSLKPEDTAVYYCAKRSFVGGRGRDSDYWGQGSQVTVSS”, the “polyreactivity (PSR sort gate)” value is “low polyreactivity”.

On to “QVQLVESGGGLVQAGGSLRLSCAASGNTLTYNVMGWYRQAPGKERELVAAISGRGGRTYYADSVKGRFTISRDNAKNTVYLQMNCLKPEDTAVYYCAAKSRNGESGGFDYWGQATQVTVSS”, for which the “polyreactivity (PSR sort gate)” value is “high polyreactivity”.

As to “QVQLVESGGGLVQAGGSLRLSCAASGNTLVKNAMGWYRQAPGNERELVAAISSSGGRTYYADSVKGRFTISRDNAKNTVYLQMNSLKPEDTAVYYCAARYPSGYYYWGQGTQVTVSS”, the “polyreactivity (PSR sort gate)” value is on record as “high polyreactivity”.

For “QVQLVESGGGLVQAGGSLRLSCAASGNTTPVNAMGWYRQAPGKERQLVAAITQSGGSTYYADSVKGRFTISRDNAKNTVYLQMNSLKPEDTAVYYCAADYGHYYGLYYWGQGTQVTVSS”, the “polyreactivity (PSR sort gate)” value is “low polyreactivity”.

For “QVQLVESGGGLVQAGGSLRLSCAASGNTYYGNTKGWYRQAPGKERELVAAITSGGSTYYADSVKGRFTISRDNAKNTVYLQMNSLKPEDTAVYYCNVVFYEYSSVSYDYWGQGTQVTVSS”, the “polyreactivity (PSR sort gate)” value is reported as “high polyreactivity”.

For the sequence “QVQLVESGGGLVQAGGSLRLSCAASGPIFKRNAMGWYRQAPGKERELVAAISGSGGRTYYADSVKGRFTISRDNAKNTVYLQMNSLKPEDTAVYYCNAGGSYYARGMDYWGQGTQVTVSS”, the “polyreactivity (PSR sort gate)” value is “high polyreactivity”.

In the case of “QVQLVESGGGLVQAGGSLRLSCAASGPIFWGYAMGWYRQAPGKERELVAAITSGGNTNYADSVKGRFTISRDNAKNTVYLQMISLKPEDTAVSYCAKRTRPWRDFDYWGQGTQVTVSS”, the “polyreactivity (PSR sort gate)” value was “low polyreactivity”.
